Laboratory results as given in publication PMC6294562.

Biological target: thrombin (alpha-thrombin) (UniProt P00734;P00734 328-363;364-622)
Assay: X-ray crystallography

Q: Does CGCCTAGGTTGGGTAGGGTGGTGGCG (structured_DNA) [NU172 (ARC2172)] bind?
A: binds
